B1: nuclear coactivator binding domain (NCBD) of CBP (residues 2059–2117) (domain or fragment, mouse, UniProt P45481 2059-2117, looked up)
chain: PPRSISPSALQDLLRTLKSPSSPQQQQQVLNILKSNPQLMAAFIKQRTAKYVANQPGMQ

Legend:
[1] = target: B1; assay: ITC + NMR titration
[2] = target: p53(1–61), full-length transactivation domain (TAD) of human p53 (human, UniProt P04637 1-61); assay: ITC + NMR titration
[3] = target: B1; assay: ITC

Binder	fold weaker binding than p53(1–61) [1] [fold]	binding result [2]	Kd [3] [µM]	dH [3] [kcal/mol]
LSQETFSDLWKLLPE (peptide, UniProt P04637 14-28, looked up) [p53(14–28), isolated AD1 peptide]	~170	–	–	–
B1	–	binds	–	–
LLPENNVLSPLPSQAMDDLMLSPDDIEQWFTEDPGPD (domain or fragment, human, UniProt P04637 25-61, looked up) [p53(25–61)]	2 to 3	–	5.4 ± 1.8	-4.12 ± 0.46
